What all share (experiment): cell-based or functional assay
Assay [1] concerns the target T1, human GPC3 on tumor cell lines (HepG2, Huh-7, NCI-H661, MKN-45, NCI-H23, BxPC-3, NCI-H292) (human, UniProt P51654 25-554).
In assay [2] the target is T1, human GPC3 on tumor cell lines (HepG2, …). The source holds these as a separate data set.
The target is the same in assay [3]. This is another data set of the same source.
Assay [4] shares this target. This is another data set of the same source.

Like-named read-outs stand apart in the source and are kept apart here.

B1: A022600170 (other)
chain: DVQLVESGGGVVQPGGSLRLSCVASGYVHKINFYGWYRQAPGKEREKVAHISIGDQTDYADSAKGRFTISRDESKNTVYLQMNSLRPEDTAAYYCRALSRIWPYDYWGQGTLVTVSSGGGGSEVQLVESGGGLVQPGGSLRLSCVASGFTFSSFAMTWVRRPPGKGLEWVATITNGGVTSYRDSVKGRFTISRDNAKNTLYLEMTSLNPEDTAVYICANARRTGPRAPTDIGSYRGQGTLVTVSSGGGGSGGGGSGGGGSGGGGSGGGGSGGGGSGGGGSEVQLVESGGGLVQPGGSLRLSCVASGSIFRSVFSSSTMEWYRQPPGKKRELVARIAPGDGTNYGALYADSVKGRFTISRDDAKKTVDLQMNSLKPEDTGVYFCASGVAWGQGTLVTVSSGGGGSGGGSEVQLVESGGGVVQPGGSLRLSCAASGFTFRSFGMSWVRQAPGKGPEWVSSISGSGSDTLYADSVKGRFTISRDNSKNTLYLQMNSLRPEDTALYYCTIGGSLSRSSQGTLVTVSSA
Regarding B1, in assay [1], the “HepG2 on Incucyte IC50” value came out at 319 pM, the “HepG2 on Incucyte Max % killing” value turned out to be 97%, the “Huh7 on xCELLigence IC50” value was 186 pM and the “Huh7 on xCELLigence Max % killing” value amounted to 103%.

B2: A022600179 (other)
chain: DVQLVESGGGVVQPGGSLRLSCVASGYVHKINFYGWYRQAPGKEREKVAHISIGDQTDYADSAKGRFTISRDESKNTVYLQMNSLRPEDTAAYYCRALSRIWPYDYWGQGTLVTVSSGGGGSEVQLVESGGGLVQPGGSLRLSCVASGFTFSSFAMTWVRRPPGKGLEWVATITNGGVTSYRDSVKGRFTISRDNAKNTLYLEMTSLNPEDTAVYICANARRTGPRAPTDIGSYRGQGTLVTVSSGGGGSGGGSEVQLVESGGGVVQPGGSLRLSCAASGFTFRSFGMSWVRQAPGKGPEWVSSISGSGSDTLYADSVKGRFTISRDNSKNTLYLQMNSLRPEDTALYYCTIGGSLSRSSQGTLVTVSSA
On to B2, for which, in assay [1], the “HepG2 on Incucyte IC50” value came to 2920 pM, the “HepG2 on Incucyte Max % killing” value was found to be 76%, the “Huh7 on xCELLigence IC50” value worked out at 6130 pM and the “Huh7 on xCELLigence Max % killing” value is 66%.

B3: A022600427 (other)
chain: DVQLVESGGGVVQPGGSLRLSCVASGYVHKINFYGWYRQAPGKEREKVAHISIGDQTDYADSAKGRFTISRDESKNTVYLQMNSLRPEDTAAYYCRALSRIWPYDYWGQGTLVTVSSGGGGSEVQLVESGGGVVQPGGSLRLSCAASGFTFSSFAMTWVRRPPGKGLEWVATITNAGVTSYADSVKGRFTISRDNAKNTLYLQMNSLRPEDTALYICANARRTGPRAPTDIGSYRGQGTLVTVSSGGGGSGGGSEVQLVESGGGVVQPGGSLRLSCAASGSIFRSVFSSSTMEWYRQAPGKKRELVARIAPGEGTYYGALYADSVKGRFTISRDNAKNTVYLQMNSLRPEDTALYYCASGVAWGQGTLVTVSSGGGGSGGGSEVQLVESGGGVVQPGGSLRLSCAASGFTFRSFGMSWVRQAPGKGPEWVSSISGSGSDTLYADSVKGRFTISRDNSKNTLYLQMNSLRPEDTALYYCTIGGSLSRSSQGTLVTVSSA
In the case of B3, in assay [2], the “IC50 (M) BxPC-3, xCELLigence human TDC assay” value is over 1e-07 M; the “IC50 (M) HepG2, xCELLigence human TDC assay” value (“IC50 (M) HepG2” below) turned out to be 1.03e-10 M; the “IC50 (M) Huh-7, xCELLigence human TDC assay” value was 1.37e-10 M; the “IC50 (M) NCI-H23, xCELLigence human TDC assay” value (from here on “IC50 (M) NCI-H23”) was over 1e-07 M. The “IC50 (M) NCI-H661, xCELLigence human TDC assay” value (shortened to “IC50 (M) NCI-H661”) in assay [2] turned out to be 1e-10 M.

B4: A022600169 (other)
chain: DVQLVESGGGLVQPGGSLRLSCVASGFTFSSFAMTWVRRPPGKGLEWVATITNGGVTSYRDSVKGRFTISRDNAKNTLYLEMTSLNPEDTAVYICANARRTGPRAPTDIGSYRGQGTLVTVSSGGGGSEVQLVESGGGVVQPGGSLRLSCVASGYVHKINFYGWYRQAPGKEREKVAHISIGDQTDYADSAKGRFTISRDESKNTVYLQMNSLRPEDTAAYYCRALSRIWPYDYWGQGTLVTVSSGGGGSEVQLVESGGGLVQPGGSLRLSCVASGSIFRSVFSSSTMEWYRQPPGKKRELVARIAPGDGTNYGALYADSVKGRFTISRDDAKKTVDLQMNSLKPEDTGVYFCASGVAWGQGTLVTVSSGGGGSGGGGSGGGGSGGGGSGGGGSGGGGSGGGGSEVQLVESGGGVVQPGGSLRLSCAASGFTFRSFGMSWVRQAPGKGPEWVSSISGSGSDTLYADSVKGRFTISRDNSKNTLYLQMNSLRPEDTALYYCTIGGSLSRSSQGTLVTVSSA
With B4, in assay [3], the “HepG2 on Incucyte IC50” value stood at 641 pM, the “HepG2 on Incucyte Max % killing” value worked out at 81%, the “Huh7 on xCELLigence IC50” value came to 1020 pM and the “Huh7 on xCELLigence Max % killing” value is 61%.

B5: A022600425 (other)
chain: DVQLVESGGGVVQPGGSLRLSCVASGYVHKINFYGWYRQAPGKEREKVAHISIGDQTDYADSAKGRFTISRDESKNTVYLQMNSLRPEDTAAYYCRALSRIWPYDYWGQGTLVTVSSGGGGSEVQLVESGGGVVQPGGSLRLSCAASGSIFRSVFSSSTMEWYRQAPGKKRELVARIAPGEGTYYGALYADSVKGRFTISRDNAKNTVYLQMNSLRPEDTALYYCASGVAWGQGTLVTVSSGGGGSGGGGSGGGGSGGGGSEVQLVESGGGVVQPGGSLRLSCAASGFTFSSFAMTWVRRPPGKGLEWVATITNAGVTSYADSVKGRFTISRDNAKNTLYLQMNSLRPEDTALYICANARRTGPRAPTDIGSYRGQGTLVTVSSGGGGSGGGSEVQLVESGGGVVQPGGSLRLSCAASGFTFRSFGMSWVRQAPGKGPEWVSSISGSGSDTLYADSVKGRFTISRDNSKNTLYLQMNSLRPEDTALYYCTIGGSLSRSSQGTLVTVSSA
In the case of B5, in assay [2], the “IC50 (M) BxPC-3, xCELLigence human TDC assay” value was over 1e-07 M; the “IC50 (M) HepG2” value was 1.11e-10 M; the “IC50 (M) Huh-7, xCELLigence human TDC assay” value came to 1.58e-10 M; the “IC50 (M) NCI-H23” value was over 1e-07 M. Besides, the “IC50 (M) NCI-H661” value in assay [2] came out at 2.59e-10 M.

B6: A022600426 (other)
chain: DVQLVESGGGVVQPGGSLRLSCVASGYVHKINFYGWYRQAPGKEREKVAHISIGDQTDYADSAKGRFTISRDESKNTVYLQMNSLRPEDTAAYYCRALSRIWPYDYWGQGTLVTVSSGGGGSEVQLVESGGGVVQPGGSLRLSCAASGSIFRSVFSSSTMEWYRQAPGKKRELVARIAPGEGTYYGALYADSVKGRFTISRDNAKNTVYLQMNSLRPEDTALYYCASGVAWGQGTLVTVSSGGGGSGGGGSGGGGSGGGGSEVQLVESGGGVVQPGGSLRLSCAASGFTFSSFAMTWVRRPPGKGLEWVATITNKGVTSYADSVKGRFTISRDNAKNTLYLQMNSLRPEDTALYICANARRTGPRAPTDIGSYRGQGTLVTVSSGGGGSGGGSEVQLVESGGGVVQPGGSLRLSCAASGFTFRSFGMSWVRQAPGKGPEWVSSISGSGSDTLYADSVKGRFTISRDNSKNTLYLQMNSLRPEDTALYYCTIGGSLSRSSQGTLVTVSSA
For the molecule B6, in assay [2], the “IC50 (M) BxPC-3, xCELLigence human TDC assay” value is over 1e-07 M; the “IC50 (M) HepG2” value worked out at 1.25e-10 M; the “IC50 (M) Huh-7, xCELLigence human TDC assay” value stood at 1.09e-10 M; the “IC50 (M) NCI-H23” value is over 1e-07 M. The “IC50 (M) NCI-H661” value in assay [2] was 2.64e-10 M.

B7: A022600175 (other)
chain: DVQLVESGGGVVQPGGSLRLSCVASGYVHKINFYGWYRQAPGKEREKVAHISIGDQTDYADSAKGRFTISRDESKNTVYLQMNSLRPEDTAAYYCRALSRIWPYDYWGQGTLVTVSSGGGGSEVQLVESGGGLVQPGGSLRLSCVASGFTFSSFAMTWVRRPPGKGLEWVATITNGGVTSYRDSVKGRFTISRDNAKNTLYLEMTSLNPEDTAVYICANARRTGPRAPTDIGSYRGQGTLVTVSSGGGGSGGGSEVQLVESGGGLVQPGGSLRLSCVASGSIFRSVFSSSTMEWYRQPPGKKRELVARIAPGDGTNYGALYADSVKGRFTISRDDAKKTVDLQMNSLKPEDTGVYFCASGVAWGQGTLVTVSSGGGGSGGGGSGGGGSGGGGSGGGGSGGGGSGGGGSEVQLVESGGGVVQPGGSLRLSCAASGFTFRSFGMSWVRQAPGKGPEWVSSISGSGSDTLYADSVKGRFTISRDNSKNTLYLQMNSLRPEDTALYYCTIGGSLSRSSQGTLVTVSSA
Turning to B7, in assay [1], the “HepG2 on Incucyte IC50” value came to 527 pM, the “HepG2 on Incucyte Max % killing” value stood at 96%, the “Huh7 on xCELLigence IC50” value was 58.6 pM and the “Huh7 on xCELLigence Max % killing” value was found to be 99%. For the same molecule, in assay [4], the “HepG2 on Incucyte IC50” value was found to be 527 pM, the “HepG2 on Incucyte Max % killing” value was determined as 96%, the “Huh7 on xCELLigence IC50” value was determined as 58.6 pM and the “Huh7 on xCELLigence Max % killing” value was found to be 99%.

B8: A022600412 (other)
chain: DVQLVESGGGVVQPGGSLRLSCVASGYVHKINFYGWYRQAPGKEREKVAHISIGDQTDYADSAKGRFTISRDESKNTVYLQMNSLRPEDTAAYYCRALSRIWPYDYWGQGTLVTVSSGGGGSEVQLVESGGGVVQPGGSLRLSCAASGFTFSSFAMTWVRRPPGKGLEWVATITNAGVTSYADSVKGRFTISRDNAKNTLYLQMNSLRPEDTALYICANARRTGPRAPTDIGSYRGQGTLVTVSSGGGGSGGGGSGGGGSGGGGSEVQLVESGGGVVQPGGSLRLSCAASGFTFRSFGMSWVRQAPGKGPEWVSSISGSGSDTLYADSVKGRFTISRDNSKNTLYLQMNSLRPEDTALYYCTIGGSLSRSSQGTLVTVSSA
Consider B8, for which, in assay [2], the “IC50 (M) BxPC-3, xCELLigence human TDC assay” value was over 1e-07 M; the “IC50 (M) HepG2” value is 3.82e-10 M; the “IC50 (M) Huh-7, xCELLigence human TDC assay” value was 1.53e-09 M; the “IC50 (M) NCI-H661” value worked out at 6.18e-10 M.

B9: A022600172 (other)
chain: DVQLVESGGGVVQPGGSLRLSCVASGYVHKINFYGWYRQAPGKEREKVAHISIGDQTDYADSAKGRFTISRDESKNTVYLQMNSLRPEDTAAYYCRALSRIWPYDYWGQGTLVTVSSGGGGSEVQLVESGGGLVQPGGSLRLSCVASGFTFSSFAMTWVRRPPGKGLEWVATITNGGVTSYRDSVKGRFTISRDNAKNTLYLEMTSLNPEDTAVYICANARRTGPRAPTDIGSYRGQGTLVTVSSGGGGSGGGSEVQLVESGGGVVQPGGSLRLSCAASGFTFRSFGMSWVRQAPGKGPEWVSSISGSGSDTLYADSVKGRFTISRDNSKNTLYLQMNSLRPEDTALYYCTIGGSLSRSSQGTLVTVSSGGGGSGGGSEVQLVESGGGLVQPGGSLRLSCVASGSIFRSVFSSSTMEWYRQPPGKKRELVARIAPGDGTNYGALYADSVKGRFTISRDDAKKTVDLQMNSLKPEDTGVYFCASGVAWGQGTLVTVSSA
B9: in assay [3], the “HepG2 on Incucyte IC50” value came to 601 pM, the “HepG2 on Incucyte Max % killing” value stood at 81%, the “Huh7 on xCELLigence IC50” value was 67 pM and the “Huh7 on xCELLigence Max % killing” value came to 90%.

Values taken from patent publication US20240343823A1 (Ablynx, published 2024).
